The chains are these.
B1: glmS ribozyme (parent)
chain: AUAAAAGCGCCAGAACUACAGAAAUGUAGUUGACGAGGAGGAGGUUUAUCGAAUUUUCGGCGGAUGCCUCCAAA

Conditions in all cases: with glucosamine-6-phosphate
The variants in data set [1] derive from B1. The data set can be described thus: kcat; higher = faster cleavage; RNA array. The method, boiled down:
(§1)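 Using a hybridised Cy3 probe at 37 °C, barcoded ribozyme variants transcribed in situ by E. coli RNA polymerase on sequenced MiSeq chips were monitored across tiles imaged over ~14 h. The flow contained glucosamine-6-phosphate from 40 μM to 10 mM in HEPES/KCl/Mg(OAc)2 buffer. Signals were normalised to baseline and to non-cleaving reference variants before per-tile medians were fit to one- or two-exponential decays to yield kobs. Weighted Michaelis–Menten fits across concentrations gave kcat and KM.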

The variants in data set [2] derive from B1. The data set can be described thus: self-cleavage kobs at 640 uM GlcN6P; higher = faster cleavage; RNA array. The method, boiled down: as §1
In data set [3] the parent is B1. The experiment in a line: self-cleavage kobs at 2500 uM GlcN6P; higher = faster cleavage; RNA array. In outline: as §1
The variants in data set [4] derive from B1. The data set can be described thus: self-cleavage kobs at 10000 uM GlcN6P; higher = faster cleavage; RNA array. In outline:
as §1

The variants in data set [5] derive from B1. The data set can be described thus: KM; higher = weaker cofactor use; RNA array. In outline: as §1
The variants in data set [6] derive from B1. The experiment in a line: self-cleavage kobs at 40 uM GlcN6P; higher = faster cleavage; RNA array. In outline:
as §1

In data set [7] the parent is B1. The data set can be described thus: self-cleavage kobs at 160 uM GlcN6P; higher = faster cleavage; RNA array. The method, boiled down:
as §1

± gives the standard error. For some of these results: Fewer inactive variants are shown than the library holds.

As for AUAAAAGCGCCAGAAGUACAGAAAUGUAGUUAACGAGGAGGAGGUUUAUCGAAUUUUCGGCGGAUGCUUCCAAA [C16G G32A C68U], in the data set with glucosamine-6-phosphate [1], the kcat was 0.000119 ± 1.4e-05 s⁻¹. Also, the “self-cleavage kobs at 640 uM GlcN6P” value with glucosamine-6-phosphate [2] came out at 0.000129 ± 3.9e-05 s⁻¹. Besides, in the data set with glucosamine-6-phosphate [3], the “self-cleavage kobs at 2500 uM GlcN6P” value was 9.95e-05 ± 3.8e-05 s⁻¹. Besides, the “self-cleavage kobs at 10000 uM GlcN6P” value in the data set with glucosamine-6-phosphate [4] stood at 0.000115 ± 1.8e-05 s⁻¹.

Turning to AUAAAAGCGCCAGAACUACAGAAAUGUAGUUGACGAGGAGAAGGUUUAUCGAAUUGUCGGCGGAUGCCUCCAAA [G41A U56G], the catalytic constant (kcat) with glucosamine-6-phosphate [1] worked out at 0.000193 ± 1.8e-05 s⁻¹. Also, the KM in the data set with glucosamine-6-phosphate [5] worked out at 1.74 ± 0.31 mM. In addition, in the data set with glucosamine-6-phosphate [2], the “self-cleavage kobs at 640 uM GlcN6P” value amounted to 5.1e-05 ± 1.4e-05 s⁻¹. The “self-cleavage kobs at 2500 uM GlcN6P” value in the data set with glucosamine-6-phosphate [3] was 0.000109 ± 3.5e-05 s⁻¹. Moreover, in the data set with glucosamine-6-phosphate [4], the “self-cleavage kobs at 10000 uM GlcN6P” value turned out to be 0.000169 ± 4.7e-05 s⁻¹.

On to AUAAAAGCGCCAGAACUACAGAAAUGUAGUUGACGAGGAGGAGGUUUAUCGAAUUGUCGGCGGAUGCCUUCAAA [U56G C70U], for which the turnover number (kcat) with glucosamine-6-phosphate [1] was 0.00109 ± 0.00036 s⁻¹. Moreover, in the data set with glucosamine-6-phosphate [6], the “self-cleavage kobs at 40 uM GlcN6P” value amounted to 0.000308 ± 4.6e-05 s⁻¹. Moreover, the “self-cleavage kobs at 160 uM GlcN6P” value with glucosamine-6-phosphate [7] came out at 0.000437 ± 7.8e-05 s⁻¹. Besides, in the data set with glucosamine-6-phosphate [2], the “self-cleavage kobs at 640 uM GlcN6P” value is 0.000908 ± 0.00022 s⁻¹. Besides, the “self-cleavage kobs at 2500 uM GlcN6P” value with glucosamine-6-phosphate [3] is 0.000943 ± 0.0003 s⁻¹. Also, in the data set with glucosamine-6-phosphate [4], the “self-cleavage kobs at 10000 uM GlcN6P” value is 0.00182 ± 0.00036 s⁻¹.

As to AUAAAGGCGCCAGAACUACAGAAAUGUAGUUGACGAGGAGGAGGUUUAUCGAAUUGUCGGCGGAUGCCGCCAAA [A6G U56G U69G], the catalytic constant (kcat) with glucosamine-6-phosphate [1] turned out to be 1.41e-05 ± 3e-06 s⁻¹.

With AUAAAAGCGCCCGAACUACAGAAAUGUAGUUGACGAGGAGGAGGUUUAUCGAAGUUUCGGCGGAUUCCUCCAAA [A12C U54G G66U], the kcat in the data set with glucosamine-6-phosphate [1] amounted to 0.00175 ± 0.00085 s⁻¹. Besides, the “self-cleavage kobs at 40 uM GlcN6P” value with glucosamine-6-phosphate [6] turned out to be 5.6e-05 ± 1.7e-05 s⁻¹. In the data set with glucosamine-6-phosphate [7], the “self-cleavage kobs at 160 uM GlcN6P” value came out at 8.77e-05 ± 1.3e-05 s⁻¹. Besides, the “self-cleavage kobs at 640 uM GlcN6P” value with glucosamine-6-phosphate [2] came to 0.000245 ± 5.3e-05 s⁻¹. In addition, the “self-cleavage kobs at 2500 uM GlcN6P” value in the data set with glucosamine-6-phosphate [3] amounted to 0.000495 ± 0.00014 s⁻¹. Moreover, in the data set with glucosamine-6-phosphate [4], the “self-cleavage kobs at 10000 uM GlcN6P” value was 0.00164 ± 0.00028 s⁻¹.

Turning to AUAAAAGCGCCAGAACUACAGAAAUGUAGUUGACGAGGAGGAGGUUUAUCGAAUUGUCGGCGGAGGCCUCCAAA [U56G U65G], the kcat with glucosamine-6-phosphate [1] was determined as 0.00371 ± 0.00083 s⁻¹. In addition, the KM with glucosamine-6-phosphate [5] worked out at 7.36 ± 2.5 mM. In addition, the “self-cleavage kobs at 40 uM GlcN6P” value with glucosamine-6-phosphate [6] came to 3.29e-05 ± 1.6e-05 s⁻¹. The “self-cleavage kobs at 640 uM GlcN6P” value with glucosamine-6-phosphate [2] came to 0.000301 ± 6e-05 s⁻¹. For the same variant, the “self-cleavage kobs at 2500 uM GlcN6P” value with glucosamine-6-phosphate [3] stood at 0.000811 ± 0.00023 s⁻¹. In addition, the “self-cleavage kobs at 10000 uM GlcN6P” value with glucosamine-6-phosphate [4] is 0.00218 ± 0.00031 s⁻¹.

For the variant AUAAAAGCGCCAGAACUACAGAAAUGUAGUUGACGAGCAGGAGGUUUAUCGAAUUUUCGGCGGAUGCGUCCAAA [G38C C68G], the kcat with glucosamine-6-phosphate [1] stood at 1.31e-05 ± 3.9e-06 s⁻¹.

On to AUAAAAGCGCCAGAACUACAGAAAUGUAGUUGAGGAGAAGGAGGUUUAUCGAAUUUUAGGCGGAUGCGUCCAAA [C34G G38A C58A C68G], for which, in the data set with glucosamine-6-phosphate [1], the kcat worked out at 5.13e-05 ± 7.5e-06 s⁻¹. The “self-cleavage kobs at 640 uM GlcN6P” value with glucosamine-6-phosphate [2] stood at 5.22e-05 ± 1.6e-05 s⁻¹. Further, in the data set with glucosamine-6-phosphate [3], the “self-cleavage kobs at 2500 uM GlcN6P” value was 4.79e-05 ± 1.7e-05 s⁻¹.

For the variant AUAAAAGCGCCAGAACUACAGAAAUGUAGUUGACGAGGAGGAGGUUUAUCGAUUUUGCGGCGGAUGCCUCCAAA [A53U U57G], in the data set with glucosamine-6-phosphate [1], the kcat worked out at 0.000158 ± 2.7e-05 s⁻¹. Also, the Michaelis-Menten constant (KM) with glucosamine-6-phosphate [5] was 4.01 ± 1.6 mM. Moreover, in the data set with glucosamine-6-phosphate [2], the “self-cleavage kobs at 640 uM GlcN6P” value was found to be 3.61e-05 ± 1.4e-05 s⁻¹. Further, in the data set with glucosamine-6-phosphate [3], the “self-cleavage kobs at 2500 uM GlcN6P” value came to 5.56e-05 ± 1e-05 s⁻¹. For the same variant, the “self-cleavage kobs at 10000 uM GlcN6P” value in the data set with glucosamine-6-phosphate [4] was found to be 0.000115 ± 1.4e-05 s⁻¹.

As a reminder, the kcat is the number of substrate molecules converted per active site and unit of time at saturation. As a reminder, the KM is the concentration of substrate that gives half-maximal velocity.

Values taken from the supplement of paper PMC7125110.
